Laboratory results taken from paper PMC5387809, “The Combination of Computational and Biosensing Technologies for Selecting Aptamer against Prostate Specific Antigen”.

Each binder was assayed against T1, prostate specific antigen (PSA) (human, UniProt P07288 25-261) (assay: SPR; ka 3.37e3 M-1s-1, kd 12.34e-3 s-1; PBS (10 mM Na2HPO4, 137 mM NaCl, 2 mM KH2PO4, 2.7 mM KCl), pH 7.4; SPR at 25 C, 50 ul/min; PSA 2 ng/ml; DNA/PEG thiol SAM on gold; QCM temperature not stated). Conditions: protein: commercial; hairpin (predicted).
T1 sequence (P07288 25-261): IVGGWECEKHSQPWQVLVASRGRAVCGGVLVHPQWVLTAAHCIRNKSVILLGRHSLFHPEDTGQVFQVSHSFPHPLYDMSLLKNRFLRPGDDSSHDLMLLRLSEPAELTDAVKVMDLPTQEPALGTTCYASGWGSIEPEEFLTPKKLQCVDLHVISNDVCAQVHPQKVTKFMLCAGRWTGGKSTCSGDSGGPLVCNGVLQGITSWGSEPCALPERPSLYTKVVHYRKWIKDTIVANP
TTTTTAATATCCGGGTTCCCGGTTGTCTCTTT (ssDNA, 5' C6 thiol) [PSAG24] was tested, and the Ka was 0.27 ± 0.04 10^6 M-1.

What follows are binders tested against T1, prostate specific antigen (PSA) (assay: QCM; 2 ng/ml PSA injected; PBS (10 mM Na2HPO4, 137 mM NaCl, 2 mM KH2PO4, 2.7 mM KCl), pH 7.4; SPR at 25 C, 50 ul/min; PSA 2 ng/ml; DNA/PEG thiol SAM on gold; QCM temperature not stated). Conditions: protein: commercial; hairpin (predicted).
In the case of TTTTTACGCACCGGGTACGTTTTTTGGCCTTT (ssDNA, 5' C6 thiol) [PSAG212], the binding signal is reported as 59.5 ± 5.8 Hz (frequency drop).
TTTTTAATATCCGGGGAACGTCGTGGCCCTTT (ssDNA, 5' C6 thiol) [PSAG28] was tested, and the binding signal was 166 ± 6.7 Hz (frequency drop).
In the case of TTTTTAATATCCGGGTTCCCGGTTGTCTCTTT (ssDNA, 5' C6 thiol) [PSAG24], the binding signal is reported as 131 ± 4.9 Hz (frequency drop).

Molecular target: T1, prostate specific antigen (PSA)
Experiment: as above
Conditions: protein: commercial; hairpin (predicted)
Remark: another data set of the same source
For TTTTTACGCACCGGGTACGTTTTTTGGCCTTT (ssDNA, 5' C6 thiol) [PSAG119], the binding signal was 91.3 ± 9.7 Hz (frequency drop).
For TTTTTAATATCCGGGTACGTTTTTTGGCCTTT (ssDNA, 5' C6 thiol) [PSAG117], the binding signal was 82.9 ± 5.8 Hz (frequency drop).
In the case of TTTTTCTGGTCCGGGTACGTTTTTTGGCCTTT (ssDNA, 5' C6 thiol) [PSAG17], the binding signal is reported as 37.3 ± 1.9 Hz (frequency drop).
For TTTTTCTGTTGCCCGGAACGTCGTGGCCCTTT (ssDNA, 5' C6 thiol) [PSAG11], the binding signal was 19.2 ± 1.7 Hz (frequency drop).
In the case of TTTTTACTTAATGCGGAACGTCGTGGCCCTTT (ssDNA, 5' C6 thiol) [PSAG112], the binding signal is reported as 71.7 ± 1.3 Hz (frequency drop).
With TTTTTCTGGAATGATTTCCCGGTTGTCTCTTT (ssDNA, 5' C6 thiol) [PSAG15] the binding signal was 108 ± 14 Hz (frequency drop).
With TTTTTCCGCACAACTTGCCATCAAATATCTTT (ssDNA, 5' C6 thiol) [PSAG118] the binding signal was 24.9 ± 3.9 Hz (frequency drop).
In the case of TTTTTCCGCACCGGGTACGGTCGTGGCCCTTT (ssDNA, 5' C6 thiol) [PSAG114], the binding signal is reported as 63 ± 5.4 Hz (frequency drop).

Each binder was assayed against T1, prostate specific antigen (PSA) (assay: SPR; ka 3.11e3 M-1s-1, kd 11.23e-3 s-1; PBS (10 mM Na2HPO4, 137 mM NaCl, 2 mM KH2PO4, 2.7 mM KCl), pH 7.4; SPR at 25 C, 50 ul/min; PSA 2 ng/ml; DNA/PEG thiol SAM on gold; QCM temperature not stated). Conditions: protein: commercial; hairpin (predicted).
TTTTTACGCACCGGGTACGTTTTTTGGCCTTT (ssDNA, 5' C6 thiol) [PSAG212] was tested, and the Ka was 0.28 ± 0.03 10^6 M-1.
